According to the Immune Epitope Database (IEDB):
pKd: −log10 of the molar value.

How the values were obtained:
Assay in all cases: IEDB peptide-MHC binding, purified MHC/competitive/fluorescence; filed as Kd, often an IC50 or EC50 that approximates it; ≥ and ≤ were set here for values at or beyond the usual limits of such assays
Conditions in all cases: source organism: Entamoeba histolytica HM-1:IMSS
HLA-A*23:01 = target: HLA-A*23:01
HLA-A*02:19 = target: HLA-A*02:19
HLA-A*02:11 = target: HLA-A*02:11
HLA-A*66:01 = target: HLA-A*66:01
HLA-B*27:05 = target: HLA-B*27:05
HLA-A*02:01 = target: HLA-A*02:01
HLA-B*07:02 = target: HLA-B*07:02
HLA-B*58:01 = target: HLA-B*58:01
HLA-A*30:01 = target: HLA-A*30:01
HLA-A*02:03 = target: HLA-A*02:03
HLA-B*15:01 = target: HLA-B*15:01
HLA-A*03:01 = target: HLA-A*03:01
HLA-B*44:02 = target: HLA-B*44:02
HLA-A*24:03 = target: HLA-A*24:03
HLA-A*11:01 = target: HLA-A*11:01
HLA-A*30:02 = target: HLA-A*30:02
HLA-A*29:02 = target: HLA-A*29:02
HLA-A*01:01 = target: HLA-A*01:01
HLA-A*02:12 = target: HLA-A*02:12
HLA-B*14:02 = target: HLA-B*14:02
HLA-B*18:01 = target: HLA-B*18:01
HLA-B*15:17 = target: HLA-B*15:17
HLA-B*08:01 = target: HLA-B*08:01
HLA-B*53:01 = target: HLA-B*53:01

In the case of EVIRATYPS, the pKd (HLA-A*23:01) was at most 4.70, the pKd (HLA-A*02:19) was at most 4.70 and the pKd (HLA-A*02:11) was at most 4.70. It also gave a pKd (HLA-A*66:01) of 7.61, a pKd (HLA-B*27:05) of at most 5.30 and a pKd (HLA-A*02:01) of at most 4.70. For the same sequence, the pKd (HLA-B*07:02) was at most 5.30, the pKd (HLA-B*58:01) was at most 5.30 and the pKd (HLA-A*30:01) was at most 5.30. For the same sequence, the pKd (HLA-A*02:03) was at most 4.70, the pKd (HLA-B*15:01) was at most 4.70 and the pKd (HLA-A*03:01) was at most 4.70. It also gave a pKd (HLA-B*44:02) of at most 5.30, a pKd (HLA-A*24:03) of at most 4.70 and a pKd (HLA-A*11:01) of at most 5.30. It also gave a pKd (HLA-A*30:02) of at most 5.30, a pKd (HLA-A*29:02) of at most 4.70 and a pKd (HLA-A*01:01) of at most 5.30. It also gave a pKd (HLA-A*02:12) of at most 4.70, a pKd (HLA-B*14:02) of at most 5.30 and a pKd (HLA-B*18:01) of at most 4.70. It also gave a pKd (HLA-B*15:17) of at most 4.70, a pKd (HLA-B*08:01) of at most 5.30 and a pKd (HLA-B*53:01) of at most 5.30.
